Earlier results in US20110300070A1, “BIOMOLECULE COMPLEXES AS CONTRAST AGENTS IN POSITRON EMISSION TOMOGRAPHY (PET) BASED METHODS FOR THE ASSESSMENT OF ORGAN FUNCTION” (priority 2008, published 2011).

B1: cystatin C: cysteine protease inhibitor, about 120 amino acids, about 13 kD (protein, UniProt P01034 27-146, looked up)
Cystatin-C: SSPGKPPRLVGGPMDASVEEEGVRRALDFAVGEYNKASNDMYHSRALQVVRARKQIVAGVNYFLDVELGRTTCTKTQPNLDNCPFHDQPHLKRKAFCSFQIYAVPWQGTMTLSKSTCQDA

Test system: proximal tubular cells
Settings: in vivo

Molecule | time window where the filtered amount of the tracer is still quantitatively retained in the proximal tubular cells | optimal clearance period
cytochrome C: heme protein, about 100 amino acids, about 12 kD | about 5 minutes | –
B1 | about 5 minutes | less than 5 minutes
